Measurements from patent US20100143365A1.

What was measured:
[1] = biological target: lysozyme Gallus gallus fibrils (Gallus gallus) (UniProt P00698); assay: ELISA, lysozyme fibrils
[2] = biological target: human fibrillar Aβ42 (human) (UniProt P05067); assay: ELISA, Aβ fibrils
UniProt P05067, sequence (P05067 672-713 limits assumed): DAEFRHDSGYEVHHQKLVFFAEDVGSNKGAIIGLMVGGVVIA

UniProt P00698, sequence (P00698 other isoform, or with tags, fused parts or gaps limits assumed): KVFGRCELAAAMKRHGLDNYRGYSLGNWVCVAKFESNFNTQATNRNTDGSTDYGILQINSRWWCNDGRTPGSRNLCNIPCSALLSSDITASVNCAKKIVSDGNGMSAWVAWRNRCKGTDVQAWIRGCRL

- OD Values [1]: 0.095 OD
- OD Values [2]: 0.011 OD
B1: scFv21 (anti-amyloid scFv designated Pan 21′) (scFv)
scFv: DKLMAEVQLLESGGGLVQPGGSLRLSCAASGFTFSSYAMSWVRQAPGKGLEWVSSIQKSGEKTHYADSVKGRFTISRDNSKNTLYLQMNSLRAEDTAVYYCAKKRTLFDYWGQGTLVTVSSGGGGSGGGGSGGGGSTDIQMTQSPSSLSASVGDRVTITCRASQSISSYLNWYQQKPGKAPKLLIYRASYLQSGVPSRFSGSGSGTDFTLTISSLQPEDFATYYCQQSYSLPTTFGQGTKVEIKRAAAHHHHHHGAAEQKLISEEDLN
